Common to all, as to type: biochemical
Assay [1] deals with T1, protein Ser/Thr kinase AKT1 (Homo sapiens, UniProt P31749).
T1 construct: baculovirus coding for the full length protein fused to GST at the N-terminus; GST (N, cleaved yes); made in house; host or cells: Sf21 insect cells (baculovirus), treated with okadaic acid before harvest
Description: 19F NMR assay of phosphorylation of CF3-labeled peptide by AKT1. On the procedure: D2O was added to the solutions (8% final concentration) for the lock signal.

The target in assay [2] is T2, trypsin from bovine pancreas (Bos taurus, UniProt P00760).
T2 construct: purchased Roche Molecular Biochemical 1418025; host or cells: bovine pancreas
T2 sequence (P00760 24-246): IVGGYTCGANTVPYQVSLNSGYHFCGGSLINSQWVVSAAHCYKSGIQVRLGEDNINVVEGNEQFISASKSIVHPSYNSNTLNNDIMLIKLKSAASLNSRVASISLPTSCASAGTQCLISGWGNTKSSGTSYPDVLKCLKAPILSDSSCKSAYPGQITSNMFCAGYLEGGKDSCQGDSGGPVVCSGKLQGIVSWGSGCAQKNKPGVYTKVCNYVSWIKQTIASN
Description: 19F NMR assay of cleavage of CF3-labeled peptide by trypsin. The note with it: 15 nM trypsin. On the procedure:
FIG. 4 provides the screening of proteases, where the substrate is the peptide of Seq ID NO:2 and the protein is trypsin from bovine pancreas. ^19F NMR spectra for the peptide in the absence (a) and in the presence (b–e) of trypsin. The reaction was run at 22° C. and quenched after 30 minutes with the addition of 0.5 mM phenylmethylsulfonyl fluoride (PMSF). The reaction was performed in the absence of compound (b), in the presence of a five compound mixture (2-amino-6 methylquinazolin-4 ol, ethyl 2-quinoxalinecarboxylate, 5-methyl-benzimidazole, methyl isoquinoline-3-carboxylate, and leupeptin) (c), in the presence of the same mixture without leupeptin (d), and in the presence of only leupeptin (e). The protein, peptide, and compound concentrations were 15 nM, 30 μM, and 20 μM, respectively. A total of 128 scans with 2.8 s repetition time were recorded for each spectrum (6 minute measuring time). Pep and C-pep are the substrate and the product respectively.
The method of the present invention can also be applied to many different types and subtypes of enzymes (e.g. proteases, phosphatases, ligases, etc.). […]
All NMR spectra were recorded at 20° C. with a 600 NMR spectrometer operating at a ^19F Larmor frequency of 564 MHZ. […]

In assay [3] the target is T3, p21-activated kinase PAK4 (Homo sapiens, UniProt O96013).
T3 construct: GST (cleaved yes); made in house; host or cells: Escherichia coli
T3 sequence (O96013 whole entry): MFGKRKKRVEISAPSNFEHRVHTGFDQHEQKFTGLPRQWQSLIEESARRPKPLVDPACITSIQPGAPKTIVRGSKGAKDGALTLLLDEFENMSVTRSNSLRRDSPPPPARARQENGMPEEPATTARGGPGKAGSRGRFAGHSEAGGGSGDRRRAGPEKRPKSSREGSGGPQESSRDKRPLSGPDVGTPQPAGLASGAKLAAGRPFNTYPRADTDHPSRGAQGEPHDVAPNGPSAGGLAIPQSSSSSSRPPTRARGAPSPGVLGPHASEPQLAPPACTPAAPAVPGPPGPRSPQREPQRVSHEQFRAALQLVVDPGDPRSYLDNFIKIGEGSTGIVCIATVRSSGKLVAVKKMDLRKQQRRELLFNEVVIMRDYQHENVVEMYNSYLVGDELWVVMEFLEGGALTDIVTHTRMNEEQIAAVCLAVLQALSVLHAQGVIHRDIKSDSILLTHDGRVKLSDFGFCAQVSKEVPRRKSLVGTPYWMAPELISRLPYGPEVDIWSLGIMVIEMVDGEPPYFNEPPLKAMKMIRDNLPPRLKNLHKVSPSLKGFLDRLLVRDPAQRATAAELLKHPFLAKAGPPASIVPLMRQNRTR
Description: 19F NMR assay of CF3-labeled peptide with PAK4 (protein function). As for the experimental part:
FIG. 5 provides the 19F spectra of the peptide of Seq ID NO:2 in the presence of three different proteins, 25 nM AKT1 (FIG. 5A top), 15 nM trypsin (FIG. 5B middle) and 150 nM PAK4 (FIG. 5C bottom). […] The chemical shift of the cleaved peptide is quite different when compared to the chemical shift of the phosphorylated peptide.
In another embodiment of the present invention, three different proteins, AKT1, Trypsin, and p-21 activated protein (PAK4) were incubated with the CF3-labeled peptide of Seq ID NO:2. […] A higher concentration of the protein with unknown function and a longer incubation period may be required because the substrate may not be optimal for the protein with unknown function. The speed of the enzymatic reaction of PAK4 is only 1/22 of the speed of AKT1, therefore, the period of time for the reaction in the presence of PAK4 was longer than the period of time for the reaction in the presence of AKT1. The method of the present invention is also applicable to activated enzymes.
The serine/threonine p21-activated kinase PAK4 was expressed as a GST fusion protein in Escherichia coli and purified to homogeneity after removal of the GST tag.
All NMR spectra were recorded at 20° C. with a 600 NMR spectrometer operating at a ^19F Larmor frequency of 564 MHZ. A 5 mm probe tunable to either 19F or ^1H frequency was used. […]

Non-standard residues stand in square brackets, D forms with d. No end group written: not given here. *: point of attachment. Phe(3-CF3) = N[C@@H](Cc1cccc(C(F)(F)F)c1)C(=O)O; Tfa = O=C(C(F)(F)F)*

T1 sequence (P31749 whole entry, the tested form may be a part): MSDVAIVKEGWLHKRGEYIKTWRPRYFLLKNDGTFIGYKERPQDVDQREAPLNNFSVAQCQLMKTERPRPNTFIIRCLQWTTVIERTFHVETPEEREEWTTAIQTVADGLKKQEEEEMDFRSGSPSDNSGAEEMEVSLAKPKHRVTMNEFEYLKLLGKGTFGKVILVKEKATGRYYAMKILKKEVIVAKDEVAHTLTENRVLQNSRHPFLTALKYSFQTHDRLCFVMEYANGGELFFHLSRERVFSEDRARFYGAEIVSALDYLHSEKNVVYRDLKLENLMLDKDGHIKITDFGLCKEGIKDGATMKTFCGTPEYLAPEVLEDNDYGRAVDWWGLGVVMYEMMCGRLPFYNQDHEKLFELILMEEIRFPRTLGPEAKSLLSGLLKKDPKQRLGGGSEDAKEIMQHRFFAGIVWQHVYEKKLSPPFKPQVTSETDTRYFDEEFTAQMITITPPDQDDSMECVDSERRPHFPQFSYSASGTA

On to `Nc1ncnc2c1ncn2[C@@H]1O[C@H](COP(=O)(O)OP(=O)(O)OP(=O)(O)O)[C@@H](O)[C@H]1O` [ATP], for which, in assay [1] (40 nM protein, 30 μM substrate peptide, 22° C., quenched after 60 minutes, read-out: KM / binding constant for ATP), the Km stood at 89 µM. For the compound `O=S(=O)(NCCNC/C=C/c1ccc(Br)cc1)c1cccc2cnccc12` [H89], the “inhibition of peptide phosphorylation” value in assay [1] (reaction in the presence of only H89 (deconvolution of five molecule mixture)) is listed as “inhibitory effect over peptide phosphorylation”. With `CC(=O)N[C@@H](CC(C)C)C(=O)N[C@@H](CC(C)C)C(=O)N[C@H](C=O)CCCNC(=N)N` [leupeptin, reference compound], the “inhibition of peptide cleavage by trypsin (cleaved peptide signal)” value in assay [2] (20 μM compound, 30 μM peptide, 22° C., quenched after 30 minutes) is listed as “missing cleaved peptide signal”.

Take `CN[C@@H]1C[C@H]2O[C@@](C)([C@@H]1OC)n1c3ccccc3c3c4c(c5c6ccccc6n2c5c31)C(=O)NC4` [staurosporine]: in assay [1] (10 μM Staurosporine, 50 nM protein, 30 μM peptide, 131 μM ATP), the “formation of phosphorylated peptide in the presence of inhibitor” value is recorded as “did not result in any formation of phosphorylated peptide”. As to “ARKRERAF(3-CF3)SFGHHA (ARKRERA[Phe(3-CF3)]SFGHHA) [peptide of Seq ID NO:2, CF3-labeled peptide substrate for trypsin, AKT1 and PAK4]”, in assay [3] (150 nM PAK4), the “19F signal after reaction with PAK4” value is “appearance of a signal at the chemical shift of the phosphorylated peptide”. Also, in assay [3] (ratio to speed of AKT1), the “speed of the enzymatic reaction of PAK4 relative to AKT1” value is 1/22. Also, the “substrate quality for AKT1” value in assay [1] (25 nM AKT1) is “good substrate”. Moreover, in assay [2], the “substrate quality for trypsin” value is recorded as “good substrate”. For “CF3—CO-ARKRERAYSFGHHA (Tfa-ARKRERAYSFGHHA) [CF3-labeled peptide of Seq ID NO:1, AKTide, 14 aminoacid peptide labeled with CF3 by N-terminal capping with trifluoroacetic anhydride]”, in assay [1] (50 nM protein, 30 μM peptide, 131 μM ATP, no inhibitor), the “time after which the enzymatic reaction is complete” value came to 149 min.
